US20200352914A1, “METHODS OF TREATING HYPERTENSION WITH ACTIVATORS OF TIE-2” (Aerpio Pharmaceuticals, Inc., priority 2019, published 2020)

What was measured:
HPTPβ = HPTPβ (Homo sapiens, UniProt P23467); assay: HPTPβ inhibitory activity (IC50); format: biochemical
eNOS = eNOS and Akt phosphorylation in human endothelial cells (immunoprecipitation, immunoblotting); format: cell-based
Experimental: Confluent monolayers of human endothelial cells expressing FLAG-tagged eNOS cultured overnight in MCDB131 containing 0.1% BSA and then incubated with increasing concentrations of Compound 2 (0.3-30 μmol/L) or solvent (DMSO) for 30 minutes. In separate experiments, human endothelial cells were cultured overnight in MCDB131 containing 0.1% BSA and then incubated treated with Compound 2 (30 μmol/L) or solvent for 30 minutes and then stimulated with Yoda1 (1 μmol/L) or solvent for an additional 30 minutes. To inhibit Src, cells were pre-incubated with PP2 (1 μmol/L) for 30 min before incubation with Compound 2 and stimulation with Yoda1. After two washes with cold PBS, cells were collected with the aid of cell scrapers in a lysis buffer containing Tris/HCl pH 7.5 (50 mmol/L), NaCl (150 mmol/L), Triton X-100 (1%), NaPPi (10 mmol/L), NaF (20 mmol/L), orthovanadate (2 mmol/L), okadaic acid (10 nmol/L), β-glycerophosphate (50 mmol/L), phenylmethylsulfonyl fluoride (230 μmol/L), and EDTA-free protease inhibitors mix. The cell mixture was incubated for 30 minutes at 4° C. with vortexing, followed by centrifugation at 13000 rpm for 10 minutes at 4° C. To assess the eNOS-VE-PTP interaction, the following modifications were applied: 1) cells were incubated with the lysis buffer for one hour on an end-over-end rocker at 4° C. and gently vortexed until no cell clumps were observed; 2) lysates were not centrifuged after lysis. FLAG-tagged eNOS was immunoprecipitated using 30 μL of packed Anti-FLAG M2 Affinity Gel per mg protein lysate overnight. The recovered immunoprecipitates were washed three times with the lysis buffer, eluted by boiling samples for 10 minutes in SDS sample buffer, and then analyzed by SDS-PAGE and immunoblotting.
Protein samples were separated by SDS-PAGE and then transferred to […] nitrocellulose membranes. Membranes were incubated overnight with primary antibodies against phospho-Tyr81 eNOS, phospho-Ser1177 eNOS, phospho-Ser633 eNOS, eNOS, phospho-Ser473 Akt, Akt, ABL1, VE-PTP, GAPDH, β-actin, followed by species-specific secondary antibodies anti-IgG conjugated with HRP. Proteins were visualized by enhanced chemiluminescence.

subjects with DME = assay: Sitting systolic blood pressure and pulse rate in subjects with DME, Compound 1 with or without ranibizumab (Example 9, TABLE 27); format: in vivo, human
Experimental: A total of 144 subjects with DME were split into 3 treatment groups. Group 1 received a subcutaneous injection of Compound 1 (15 mg) and a sham intravitreal injection. Group 2 received a subcutaneous injection of Compound 1 (15 mg) and an intravitreal injection of ranibizumab (0.3 mg). Group 3 received a subcutaneous injection of a placebo, and an intravitreal injection of ranibizumab (0.3 mg).
FIG. 19 and TABLE 27 show the effect of Compound 1 treatment, both alone and in combination with ranibizumab, on the sitting systolic blood pressure of subjects.
FIG. 20 compares the effects of Compound 1 treatment, alone (Group 1), or in combination with ranibizumab (Group 2), on subjects with a baseline sitting systolic blood pressure of 140 mmHg or greater, versus those with a baseline sitting systolic blood pressure of less than 140 mmHg. […] The correlation between baseline sitting systolic blood pressure and the change in blood pressure from baseline seen 30 and 90 minutes following specified treatments is shown in FIG. 21 and FIG. 22, respectively.

Tie-2 = Tie-2 phosphorylation in hypoxic HUVECs; format: cell-based, human; details: HUVECs hypoxic 16 h; ANG-1 alone 500 ng/mL
Experimental: HUVECs cultured under hypoxic conditions for 16 hours were treated with 5 μM Compound 1 for 10 minutes in the presence or absence of ANG-1 or ANG-2 (500 ng/mL). Untreated cells served as controls. The cells were then lysed and Tie-2 was immunoprecipitated and probed with anti-phosphotyrosine (p-Tyr) to indicate Tie-2 activation, or anti-Tie-2 as a loading control.

[1] = subjects with DME, Compound 1 15 mg subcutaneous, ranibizumab 0.3 mg intravitreal, 30 minutes post-dose
[2] = subjects with DME, Compound 1 15 mg subcutaneous, ranibizumab 0.3 mg intravitreal, 90 minutes post-dose

HPTPβ, sequence (P23467 23-1997): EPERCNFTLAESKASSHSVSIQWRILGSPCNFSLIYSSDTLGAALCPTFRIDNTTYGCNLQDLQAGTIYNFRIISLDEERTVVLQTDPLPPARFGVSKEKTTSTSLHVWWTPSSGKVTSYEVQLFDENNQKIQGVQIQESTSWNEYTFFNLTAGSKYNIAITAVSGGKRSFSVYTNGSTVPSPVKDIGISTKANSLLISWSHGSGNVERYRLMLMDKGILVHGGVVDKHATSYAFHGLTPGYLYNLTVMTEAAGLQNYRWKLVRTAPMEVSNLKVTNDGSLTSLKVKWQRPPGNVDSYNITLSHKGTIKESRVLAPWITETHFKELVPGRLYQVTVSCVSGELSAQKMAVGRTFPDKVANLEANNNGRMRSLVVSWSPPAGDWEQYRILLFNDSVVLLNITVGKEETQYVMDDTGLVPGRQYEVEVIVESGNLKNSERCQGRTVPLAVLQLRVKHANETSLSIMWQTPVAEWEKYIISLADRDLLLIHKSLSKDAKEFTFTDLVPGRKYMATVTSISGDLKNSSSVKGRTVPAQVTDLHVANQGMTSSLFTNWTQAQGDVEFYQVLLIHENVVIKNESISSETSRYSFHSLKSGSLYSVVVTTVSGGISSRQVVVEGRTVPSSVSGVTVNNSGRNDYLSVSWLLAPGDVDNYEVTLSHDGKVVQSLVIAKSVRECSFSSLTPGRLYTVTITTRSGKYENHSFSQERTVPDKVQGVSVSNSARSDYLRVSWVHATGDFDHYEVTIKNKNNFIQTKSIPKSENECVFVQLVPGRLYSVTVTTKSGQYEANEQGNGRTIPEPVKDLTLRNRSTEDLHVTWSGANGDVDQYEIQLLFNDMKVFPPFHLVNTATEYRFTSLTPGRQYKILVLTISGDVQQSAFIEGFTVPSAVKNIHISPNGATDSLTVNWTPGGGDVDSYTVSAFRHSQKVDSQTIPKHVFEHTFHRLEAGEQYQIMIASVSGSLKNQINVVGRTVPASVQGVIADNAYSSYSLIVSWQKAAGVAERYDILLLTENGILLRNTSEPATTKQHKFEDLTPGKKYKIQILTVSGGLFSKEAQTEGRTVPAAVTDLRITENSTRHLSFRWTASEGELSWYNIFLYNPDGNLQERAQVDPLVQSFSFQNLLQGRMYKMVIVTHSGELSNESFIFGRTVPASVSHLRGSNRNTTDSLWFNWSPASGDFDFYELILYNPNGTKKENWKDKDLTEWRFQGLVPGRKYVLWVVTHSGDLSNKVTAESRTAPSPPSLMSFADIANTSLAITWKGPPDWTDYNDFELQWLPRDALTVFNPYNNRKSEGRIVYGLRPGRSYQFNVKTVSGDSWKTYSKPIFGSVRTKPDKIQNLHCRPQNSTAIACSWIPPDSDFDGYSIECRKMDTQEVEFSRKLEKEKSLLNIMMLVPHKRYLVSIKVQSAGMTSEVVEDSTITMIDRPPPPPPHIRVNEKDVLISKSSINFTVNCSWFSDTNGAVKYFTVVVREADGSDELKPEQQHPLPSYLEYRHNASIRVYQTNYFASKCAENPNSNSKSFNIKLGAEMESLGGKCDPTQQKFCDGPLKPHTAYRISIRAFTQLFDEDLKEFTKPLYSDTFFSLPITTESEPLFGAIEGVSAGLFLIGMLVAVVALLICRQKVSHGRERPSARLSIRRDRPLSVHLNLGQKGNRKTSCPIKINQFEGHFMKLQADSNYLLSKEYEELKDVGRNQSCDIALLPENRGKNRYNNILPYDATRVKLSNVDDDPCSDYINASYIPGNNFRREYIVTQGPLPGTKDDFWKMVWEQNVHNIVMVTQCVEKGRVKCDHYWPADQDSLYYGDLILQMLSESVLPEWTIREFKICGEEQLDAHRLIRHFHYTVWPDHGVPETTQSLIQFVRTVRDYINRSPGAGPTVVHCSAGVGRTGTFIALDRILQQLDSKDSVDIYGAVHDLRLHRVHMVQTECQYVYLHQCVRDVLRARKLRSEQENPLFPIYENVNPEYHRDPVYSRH

Molecule `CCCc1nc([C@H](Cc2ccc(NS(=O)(=O)O)cc2)NC(=O)OC(C)(C)C)cs1` [AA65] has an IC50 (HPTPβ) of 40 nM.

`CC(C)(C)n1nc(-c2ccc(Cl)cc2)c2c(N)ncnc21` [PP2, reference compound] was tested, and the “basal and Yoda1-induced tyrosine phosphorylation of eNOS” value (eNOS; PP2 1 μmol/L pre-incubation) was “significantly reduced”.

With `COC(=O)N[C@@H](Cc1ccccc1)C(=O)N[C@@H](Cc1ccc(NS(=O)(=O)O)cc1)c1nc(-c2ccccc2)cs1` [AA21] the IC50 (HPTPβ) was < 0.002 nM.

With `Clc1cccc(Cl)c1CSc1nnc(-c2cnccn2)s1` [Yoda1, reference compound] the “phosphorylation of Akt and eNOS” value (eNOS; Yoda1 1 μmol/L, 30 min) was “elicited the phosphorylation of Akt on Ser473, and phosphorylation of eNOS on Ser1177 and Ser633”.

B1: ranibizumab (antibody, chains of the INN, looked up, V domains shown)
VH: EVQLVESGGGLVQPGGSLRLSCAASGYDFTHYGMNWVRQAPGKGLEWVGWINTYTGEPTYAADFKRRFTFSLDTSKSTAYLQMNSLRAEDTAVYYCAKYPYYYGTSHWYFDVWGQGTLVTVSS
VL: DIQLTQSPSSLSASVGDRVTITCSASQDISNYLNWYQQKPGKAPKVLIYFTSSLHSGVPSRFSGSGSGTDFTLTISSLQPEDFATYYCQQYSTVPWTFGQGTKVEIK
modifications: Fab
B1 was tested, and the blood pressure change (subjects with DME; baseline sitting SBP 140 mmHg or greater, ranibizumab alone (Group 3)) was “Minimal change in blood pressure” and the “decrease in sitting systolic blood pressure compared to baseline” value (subjects with DME; ranibizumab 0.3 mg intravitreal alone (Group 3), 30 and 90 minutes post-dose) was “not seen”.

B2: Placebo + Ranibizumab (antibody, chains of the INN, looked up, V domains shown)
VH: EVQLVESGGGLVQPGGSLRLSCAASGYDFTHYGMNWVRQAPGKGLEWVGWINTYTGEPTYAADFKRRFTFSLDTSKSTAYLQMNSLRAEDTAVYYCAKYPYYYGTSHWYFDVWGQGTLVTVSS
VL: DIQLTQSPSSLSASVGDRVTITCSASQDISNYLNWYQQKPGKAPKVLIYFTSSLHSGVPSRFSGSGSGTDFTLTISSLQPEDFATYYCQQYSTVPWTFGQGTKVEIK
modifications: Fab with placebo
For B2, the “Sitting systolic blood pressure, Change from pre-dose to 30 minutes post-dose, Max” value (subjects with DME; [1]) was 31 mmHg, the “Sitting systolic blood pressure, Change from pre-dose to 30 minutes post-dose, Mean (SD)” value (subjects with DME; [1]) was 2.2 (14.32) mmHg and the “Sitting systolic blood pressure, Change from pre-dose to 30 minutes post-dose, Median” value (subjects with DME; [1]) was 1.0 mmHg. The “Sitting systolic blood pressure, Change from pre-dose to 30 minutes post-dose, Min” value (subjects with DME; [1]) was −37 mmHg, the “Sitting systolic blood pressure, Change from pre-dose to 90 minutes post-dose, Max” value (subjects with DME; [2]) was 35 mmHg and the “Sitting systolic blood pressure, Change from pre-dose to 90 minutes post-dose, Mean (SD)” value (subjects with DME; [2]) was −0.1 (14.46) mmHg. For the same molecule, the “Sitting systolic blood pressure, Change from pre-dose to 90 minutes post-dose, Median” value (subjects with DME; [2]) was 2.0 mmHg and the “Sitting systolic blood pressure, Change from pre-dose to 90 minutes post-dose, Min” value (subjects with DME; [2]) was −30 mmHg.

B3: ANG-1: angiopoietin 1, an agonist of Tie-2 (protein, UniProt Q15389 16-498, looked up)
Angiopoietin-1: HIGCSNQRRSPENSGRRYNRIQHGQCAYTFILPEHDGNCRESTTDQYNTNALQRDAPHVEPDFSSQKLQHLEHVMENYTQWLQKLENYIVENMKSEMAQIQQNAVQNHTATMLEIGTSLLSQTAEQTRKLTDVETQVLNQTSRLEIQLLENSLSTYKLEKQLLQQTNEILKIHEKNSLLEHKILEMEGKHKEELDTLKEEKENLQGLVTRQTYIIQELEKQLNRATTNNSVLQKQQLELMDTVHNLVNLCTKEGVLLKGGKREEEKPFRDCADVYQAGFNKSGIYTIYINNMPEPKKVFCNMDVNGGGWTVIQHREDGSLDFQRGWKEYKMGFGNPSGEYWLGNEFIFAITSQRQYMLRIELMDWEGNRAYSQYDRFHIGNEKQNYRLYLKGHTGTAGKQSSLILHGADFSTKDADNDNCMCKCALMLTGGWWFDACGPSNLNGMFYTAGQNHGKLNGIKWHYFKGPSYSLRSTTMMIRPLDF
B3 was tested, and the “Tie-2 phosphorylation (p-Tyr)” value (Tie-2) was “did not increase Tie-2 phosphorylation”.
